Drawing on US20030175730, “Multivalent RNA aptamers and their expression in multicellular organisms” (published 2003), this text covers binding result, binding signal and Kd for 13 molecules.

In data set [1] the target is T1, B52 (SRp55) full length (Drosophila melanogaster, UniProt P26686 P26686:1-350). The experiment in a line: EMSA; antisense does not bind. The note with it: tags: baculovirus/Sf9 expressed, SR protein purification, label: 32P-UTP. As for the experimental part: (§1) All binding assays were performed in 20 μl volume in 1× binding buffer described above. A typical binding assay using labeled RNA contains about 20 finole of ³²P-labeled RNA probe and differing amounts (1-10 pmole) of B52 protein. A typical binding assay using the truncated versions of B52 contains 1 μl of the ³⁵S-labeled translation reaction mixture with 2 pmoles of unlabeled RNA transcript (the final concentration of RNAs in this reaction was 100 nM and concentration of the labeled B52 proteins was much lower). The reactions were allowed to equilibrate for 15-20 minutes at ambient temperature before being subjected to filter binding, gel shift, or UV crosslinking.
(§2) To determine the sequence/structure requirements for binding by B52, deletion and substitution mutations, and antisense constructs of BBS were designed in light of the shared sequence motif and predicted secondary structures (FIG. 4). These short RNA transcripts were produced by in vitro transcription of synthetic templates, and their affinity to B52 was assayed by band shift.

Data set [2] concerns the target T1, B52 (SRp55) full length. The experiment in a line: filter; signal 20x background of unselected pool. The note with it: tags: baculovirus/Sf9 expressed, SR protein purification; hairpin. Here is the method: as §1
(§3) When individual RNA's transcribed from cloned sequences were tested by filter binding assay the BBS RNA's were all able to bind B52 to generate signals that were 20 times the background produced by RNA's from the unselected pools. […] After cloning the selected sequences, RNA transcripts without most of the 3′ constant region were made by cutting the template with the restriction endonuclease Scal. […] The band shift assay was first performed with these sequences. Two sequences randomly picked from the original unselected pool were used as controls. Increasing amounts of B52 were added to ³²P-labeled RNA probes, which contain the 5′ constant region, in the presence of a large excess of tRNA. […]

In data set [3] the target is T1, B52 (SRp55) full length. In words: EMSA; consensus trapped in duplex loses binding. The note with it: tags: baculovirus/Sf9 expressed, SR protein purification; label: 32P-UTP; hairpin, BBS consensus paired with its antisense via UUCG tetraloop. Here is the method: as §1, §2
The target in data set [4] is T1, B52 (SRp55) full length. The experiment in a line: EMSA; binds as well as BBS-I. To be noted: tags: baculovirus/Sf9 expressed, SR protein purification; label: 32P-UTP; hairpin with internal loop. As for the experimental part: as §1, §2
In general terms: A gel shift assay detects complexes by their altered migration in electrophoresis.

In data set [5] the target is T1, B52 (SRp55) full length. In words: EMSA; binding not compromised. The note with it: tags: baculovirus/Sf9 expressed, SR protein purification; label: 32P-UTP; hairpin. Here is the method: as §1, §2
Data set [6] deals with T1, B52 (SRp55) full length. In words: EMSA; fully active. To be noted: tags: baculovirus/Sf9 expressed, SR protein purification; label: 32P-UTP; hairpin. As for the experimental part: as §1, §2
For data set [7], the target named is T1, B52 (SRp55) full length. In words: EMSA; 1:1; 50 mM Tris pH 7.6, 200 mM KOAc, 5 mM MgCl2, excess tRNA, gel 4 C. To be noted: tags: baculovirus/Sf9 expressed, SR protein purification; label: 32P-UTP; hairpin. As for the experimental part:
as §1, §3

Another data set deals with B52 RRM1+RRM2 (R12) (Drosophila melanogaster, UniProt P26686 P26686:4-188). The experiment in a line: EMSA; affinity comparable to baculovirus B52; also UV-crosslinked. To be noted: tags: 35S-Met, reticulocyte lysate; hairpin. Here is the method: (§4) Gel shifts were performed at 4° C. The binding reaction mixtures were set at 4° C. for 5-10 minutes before being loaded onto a 2.5% agarose gel in ¼ TBE buffer. The avidity of the pentavalent RNA aptamer to B52 was examined on longer agarose gels (25 cm) to improve the resolution of RNA bands. The affinity of the RNA for the in vitro translated polypeptides was estimated by comparing the intensity of the bands representing the complex on the agarose gel and that of the corresponding polypeptides run on SDS-PAGE. To crosslink proteins to RNA, the binding reaction mixtures were irradiated for 20 minutes from 5 cm directly above by inverting a short-wavelength UV trans-illuminator. The products of crosslinking were analyzed using standard SDS-PAGE.
(§5) BBS RNAs were selected for their ability to bind full length B52 protein. It is possible that B52 binds RNA through either one or the other RRMs, the SR domain, or a combination of these domains. To identify the specific RNA-binding site on B52, a set of ³⁵S-methionine labeled B52 deletion constructs were prepared by in vitro translation and then tested for their ability to bind the selected BBS #8 RNA in two different assays (FIG. 6A). […]
(§6) To confirm the requirements of both RRMs for binding, these binding reactions were repeated and the reaction mixtures were subjected to UV irradiation. The UV-crosslinked species were then analyzed on SDS-PAGE. […]

A further data set addresses B52 full length (F) (Drosophila melanogaster, UniProt P26686 P26686:1-350). The experiment in a line: EMSA; 100 nM RNA; affinity comparable to baculovirus B52. To be noted: tags: 35S-Met, reticulocyte lysate; hairpin. Here is the method:
as §1
(§7) BBS RNAs were selected for their ability to bind full length B52 protein. It is possible that B52 binds RNA through either one or the other RRMs, the SR domain, or a combination of these domains. To identify the specific RNA-binding site on B52, a set of ³⁵S-methionine labeled B52 deletion constructs were prepared by in vitro translation and then tested for their ability to bind the selected BBS #8 RNA in two different assays (FIG. 6A). These polypeptides also serve as a second source of target proteins in binding assays to confirm the specificity of binding to the selected BBS RNA.

The next data set deals with B52 RRM2+SR domain (R2S) (Drosophila melanogaster, UniProt P26686 P26686:115-350). The experiment in a line: EMSA; 100 nM RNA, no discrete band. The note with it: tags: 35S-Met, reticulocyte lysate; hairpin. As for the experimental part: as §4, §7
In a further data set the target is B52 SR domain (S) (Drosophila melanogaster, UniProt P26686 P26686:189-350). The experiment in a line: EMSA; 100 nM RNA, no discrete band. The note with it: tags: 35S-Met, reticulocyte lysate; hairpin. As for the experimental part:
as §4, §7

The next data set concerns the target B52 RRM1 (R1) (Drosophila melanogaster, UniProt P26686 P26686:4-74). In words: EMSA; no band; not UV-crosslinked; not complemented by R2S in trans. The note with it: tags: 35S-Met, reticulocyte lysate; hairpin. Here is the method: as §4, §5, §6
The target of another data set is T2, HSF (heat shock factor) (UniProt P22813 P22813:1-691).
T2 sequence: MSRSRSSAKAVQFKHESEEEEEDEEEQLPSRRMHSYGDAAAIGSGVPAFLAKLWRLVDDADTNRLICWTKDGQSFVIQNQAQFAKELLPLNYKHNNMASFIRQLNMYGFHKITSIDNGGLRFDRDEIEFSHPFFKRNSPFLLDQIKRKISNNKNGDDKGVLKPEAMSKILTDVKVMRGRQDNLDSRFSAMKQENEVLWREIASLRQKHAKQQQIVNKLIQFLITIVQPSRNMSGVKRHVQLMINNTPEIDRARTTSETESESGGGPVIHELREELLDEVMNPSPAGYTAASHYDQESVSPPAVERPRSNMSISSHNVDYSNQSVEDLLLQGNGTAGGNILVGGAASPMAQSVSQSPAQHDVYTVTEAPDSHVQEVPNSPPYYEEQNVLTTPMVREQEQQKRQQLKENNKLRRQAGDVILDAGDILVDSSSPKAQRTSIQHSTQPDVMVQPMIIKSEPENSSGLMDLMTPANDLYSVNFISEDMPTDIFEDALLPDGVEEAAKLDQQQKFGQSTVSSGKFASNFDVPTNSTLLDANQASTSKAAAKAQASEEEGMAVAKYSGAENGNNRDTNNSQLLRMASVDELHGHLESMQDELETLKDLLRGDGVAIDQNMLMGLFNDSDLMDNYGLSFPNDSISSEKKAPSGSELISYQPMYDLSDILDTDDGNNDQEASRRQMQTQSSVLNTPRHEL
The experiment in a line: no measurable affinity for BBS RNAs; individual BBS and method not specified. To be noted: hairpin.

The target in a further data set is T3, RBP1 (SR protein) (UniProt Q02427 Q02427:1-144).
T3 sequence: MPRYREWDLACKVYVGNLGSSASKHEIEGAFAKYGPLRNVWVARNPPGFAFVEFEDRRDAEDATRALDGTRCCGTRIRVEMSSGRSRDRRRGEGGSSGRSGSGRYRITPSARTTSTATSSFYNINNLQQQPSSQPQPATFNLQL
The description is as above. The note with it: hairpin.

The target in data set [8] is T1, B52 (SRp55) full length. The experiment in a line: EMSA; full binding activity. The note with it: tags: baculovirus/Sf9 expressed, SR protein purification; label: 32P-UTP; hairpin with unfolded 3' tail. As for the experimental part: as §1, §2
For data set [9], the target named is T1, B52 (SRp55) full length. In words: EMSA; pentavalent vs monovalent; single-unit ribozyme-cleaved transcript tested in FIG. 9A. The note with it: tags: baculovirus/Sf9 expressed, SR protein purification; multivalent, five BBS hairpins closed by S35 stem. Here is the method:
as §4
Fragment C, which contains no binding site, served as an internal loading control in a band shift assay to assess the avidity of the pentavalent construct. During the transcription reaction, the extent of self-cleavage reached about 90% (FIG. 9A, Lane 1). […] The multivalent RNA aptamers bound B52 10-fold more avidly than the individual monovalent RNA aptamers, as shown here compared to the strong-binding primary aptamer BBS #14 (Lanes 2-4 vs. Lanes 6-8, FIG. 9A). […]

The target in data set [10] is T1, B52 (SRp55) full length. The experiment in a line: EMSA; strong binder; both conserved flanking Gs. To be noted: tags: baculovirus/Sf9 expressed, SR protein purification; label: 32P-UTP; hairpin. Here is the method:
as §1, §2

T1 sequence (P26686 other isoform, or with tags, fused parts or gaps): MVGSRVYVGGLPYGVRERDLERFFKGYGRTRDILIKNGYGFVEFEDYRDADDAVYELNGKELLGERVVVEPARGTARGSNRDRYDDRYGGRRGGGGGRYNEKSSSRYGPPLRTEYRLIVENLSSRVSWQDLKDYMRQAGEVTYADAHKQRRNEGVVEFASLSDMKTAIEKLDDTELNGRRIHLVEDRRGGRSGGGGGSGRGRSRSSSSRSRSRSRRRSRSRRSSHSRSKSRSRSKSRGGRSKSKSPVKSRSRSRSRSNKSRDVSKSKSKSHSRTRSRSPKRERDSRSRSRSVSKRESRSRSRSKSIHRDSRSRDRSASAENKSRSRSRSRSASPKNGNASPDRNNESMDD
Chain of B52 SR domain (S) (P26686 other isoform, or with tags, fused parts or gaps): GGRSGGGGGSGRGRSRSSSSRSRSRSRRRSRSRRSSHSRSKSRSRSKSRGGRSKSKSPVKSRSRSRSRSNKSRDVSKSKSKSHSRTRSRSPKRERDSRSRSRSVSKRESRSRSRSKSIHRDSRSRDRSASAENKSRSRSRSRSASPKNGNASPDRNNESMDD
Chain of B52 RRM2+SR domain (R2S) (P26686 other isoform, or with tags, fused parts or gaps): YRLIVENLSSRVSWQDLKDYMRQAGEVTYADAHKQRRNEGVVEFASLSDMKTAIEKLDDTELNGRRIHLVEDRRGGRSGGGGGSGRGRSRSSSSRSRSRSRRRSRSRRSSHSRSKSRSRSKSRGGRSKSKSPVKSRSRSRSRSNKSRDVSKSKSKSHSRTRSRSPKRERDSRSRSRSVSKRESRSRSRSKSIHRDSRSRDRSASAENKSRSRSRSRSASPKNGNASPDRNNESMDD
Chain of B52 RRM1+RRM2 (R12) (P26686 other isoform, or with tags, fused parts or gaps): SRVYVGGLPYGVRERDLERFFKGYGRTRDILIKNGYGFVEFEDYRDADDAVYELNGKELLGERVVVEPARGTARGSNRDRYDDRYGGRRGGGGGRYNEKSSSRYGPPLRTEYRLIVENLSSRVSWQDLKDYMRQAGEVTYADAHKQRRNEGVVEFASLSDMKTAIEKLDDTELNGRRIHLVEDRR
Chain of B52 RRM1 (R1) (P26686 4-74, one chain of several): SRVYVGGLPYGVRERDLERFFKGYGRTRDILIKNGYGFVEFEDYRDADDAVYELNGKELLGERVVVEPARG

Take GGACUGUCGCCUGGUUGAUCGU (ssRNA) [AntiBBS-II]: the binding result in the data set with B52 (SRp55) full length [1] is listed as “no binding”.

B1: BBS #23 (ssRNA)
RNA: GGGAGAAUUCAACUGCCAUCUAGGCCCAACUGCUAAGAAGCAUCCUGUACGAUCAACCCGGCGACAGUACUACAAGCUUCUGGACUCGGU
B1: in the data set with B52 (SRp55) full length [2], the binding result is on record as “binds”.
For GGUCGCCUGGUUGAUCUUCGGAUCAACCAGGCGACA (ssRNA) [UUCG/BBS], the binding result in the data set with B52 (SRp55) full length [3] is “no binding”.
As to GGCGGUCGCCUGGUUGACCAGCC (ssRNA) [AntiBBS-I], the binding result in the data set with B52 (SRp55) full length [1] (hairpin) is listed as “no binding”.
In the case of GGGUACGAUCAACCAGGCGACAGUACCC (ssRNA) [BBS-II], the binding result with B52 (SRp55) full length [4] is reported as “binds”.
GGCGGUCAACCAGGCGACCGCC (ssRNA) [BBS-I/NoBulge]: the binding result with B52 (SRp55) full length [5] is listed as “binds”.
Regarding GGCUGGUCAACCAGGCGACCGCC (ssRNA) [BBS-I], the binding signal in the data set with B52 (SRp55) full length [6] is 1 fold of BBS #8.

B2: BBS #8 ScaI-trimmed (ssRNA)
RNA: GGGAGAAUUCAACUGCCAUCUAGGCUGGUCAACCAGGCGACCGCCACCCGCGCGCGCAAUACCUAGU
With B2, in the data set with B52 (SRp55) full length [7], the Kd (in general, the free concentration of one partner at which half of the binding sites on the other are occupied at equilibrium, for simple one-to-one binding) was roughly 20 nM.

B3: BBS #14 ScaI-trimmed (ssRNA)
RNA: GGGAGAAUUCAACUGCCAUCUAGGCAGGGUAACGAUCAACCUGGCGACAGCUGCCCUGCCGUCCAAGU
Molecule B3 registered a Kd with B52 (SRp55) full length [7] of roughly 50 nM.

B4: BBS #8 (ssRNA)
RNA: GGGAGAAUUCAACUGCCAUCUAGGCUGGUCAACCAGGCGACCGCCACCCGCGCGCGCAAUACCUAGUACUACAAGCUUCUGGACUCGGU
Take B4: the binding result is on record as “binds” with B52 RRM1+RRM2 (R12); “binds” with B52 full length (F); “no binding” in the data set with B52 RRM2+SR domain (R2S); “no binding” with B52 SR domain (S); “no binding” with B52 RRM1 (R1); “no binding” with HSF (heat shock factor). In addition, the binding result with RBP1 (SR protein) was “no binding”.
As for GGCUGGUCAACCAGGCGACCGCCACCCGCGCGC (ssRNA) [BBS-I/Long], the binding signal with B52 (SRp55) full length [8] was 1 fold of BBS #8.

B5: mature pentavalent BBS(5) aptamer (ssRNA)
RNA: GCGGCCGCCUCCGCGGCCGCCUGAUGAGUCCGUGAGGACGAAACAUGCAUGUCGAGAGUACGAUCAACCAGGCGACAGUACUCUCGACGAUCAACCAGGCGACAGUGGCUGGUCAACCAGGCGACCGCCACUGCAGGGUAACGGUCAACCAGGCGACCGUUACCCGGACGGUCAACCAGGCGACCGUUGACUUCGGUCAGUCGAGAUGCAUGUC
For B5, the binding signal in the data set with B52 (SRp55) full length [9] was 10 fold more avid than BBS #14.
For GGACGGUCAACCAGGCGACCGU (ssRNA) [bbs-II/3'Stem], in the data set with B52 (SRp55) full length [10], the binding result was “binds”.
